Data reported in patent US20180244796A1 (CARSGEN THERAPEUTICS, published 2018).

B6: purified human mesothelin protein (recombinant, 6xHis tag) (other)
chain: EVEKTACPSGKKAREIDESLIFYKKWELEACVDAALLATQMDRVNAIPFTYEQLDVLKHKLDELYPQGYPESVIQHLGYLFLKMSPEDIRKWNVTSLETLKALLEVNKGHEMSPQVATLIDRFVKGRGQLDKDTLDTLTAFYPGYLCSLSPEELSSVPPSSIWAVRPQDLDTCDPRQLDVLYPKARLAFQNMNGSEYFVKIQSFLGGAPTEDLKALSQQNVSMDLATFMKLRTDAVLPLTVAEVQKLLGPHVEGLKAEERHRPVRDWILRQRQDDLDTLGLGLQGHHHHHH
notes: also called hu-mesothelin; human mesothelin recombinant protein

What was measured:
[1] = target: T1, BSA (bovine serum albumin) (bovine, UniProt P02769 25-607); test: single phage ELISA, 100 ng/well coated BSA, anti-M13 detection
T1 construct: also called negative control protein BSA
Experimental: 96 clones were randomly selected in the clones obtained from the fourth round of screening and their binding capability to human mesothelin was analyzed by single phage ELISA (enzyme-linked immunosorbent assay). For this purpose, each single colony was inoculated in 300 μl of 2×YT/ampicillin medium (containing 2% glucose) in a 96-well deep-well plate and cultured with shaking at 37° C. and 250 rpm for 16 hours. 20 μl of culture was inoculated into 500 μl of 2×YT/ampicillin medium (containing 0.1% glucose) and shaken at 37° C. and 250 rpm for 1.5 hours. To prepare the helper phage solution, 75 μl of M13KO7 (titer of 3×10¹² pfu/ml) was taken and mixed into 15 ml of 2×YT medium and added into a culture plate at 50 μl/well, and incubated at 37° C. and 150 rpm for 30 minutes. And then prepared kanamycin solution (180 μl of 50 mg/ml kanamycin was taken and added into 15 ml of 2×YT medium) was added at 50 μl/well and incubated with shaking for 16 hours at 37° C. and 250 rpm. […]
For single phage ELISA, 100 ng/well of antigen human mesothelin and negative control protein BSA (100 μl/well) were used in a 96-well MediSorp ELISA plate (purchased from Nunc) and coated overnight at 4° C. […] Extinction values were measured at 450 nm with an enzyme-linked immunosorbent (Bio-Rad).

[2] = target: B6; test: flow cytometry; CAR T cells stained with biotinylated human mesothelin recombinant protein and PE-labeled streptavidin
Experimental: Infected CTL cells were detected by flow cytometry on day 8 of culture for the expression of different chimeric antigen receptors. Firstly, the infected CAR T cells were incubated with biotinylated human mesothelin recombinant protein for 1 h at 37° C., washed in D-PBS twice and then incubated with PE-labeled streptavidin for 40 min at 37° C. After washed with D-PBS for 3 times, the ratio of positive cells was determined by flow cytometry. Uninfected T lymphocytes was used as a negative control, the positive rates of virus-infected T cells expressing different chimeric antigen receptors are shown in Table 3.

[3] = target: human mesothelin on PANC-1-MSLN cells (human, UniProt Q13421 296-598); test: cell-based or functional assay
scFv-P3F2-Fc = target: T2, scFv-P3F2-Fc (human, UniProt P01857-1 99-330 = IgG part, limits assumed); test: SPR Biacore T200, antibody captured by anti-human IgG (Fc), human mesothelin as analyte, 25 C
T2 construct: domain: Fc fragment; scFv cloned NheI/BamHI into pCMV-V5-Fc, expressed in HEK-293F, protein A purified; also called P3F2 single chain antibody; P3F2 single chain antibod
Experimental: (§1) To quantitatively analyze the binding of an antibody to human mesothelin, the affinity and kinetic parameters of single-chain antibody and monoclonal antibody of P1A6E and P3F2 were measured by capture method using Biacore T200 system (from GE). An anti-human IgG (Fc) antibody (purchased from GE) was coupled to carboxymethyl dextran surface of sensor chip […] through primary amino with NHS/EDC coupling according to the manufacturer's instructions. Measurements were performed in 1×HBS-EP+working buffer at 25° C., 30 μl/min, and regeneration condition was 3 M MgCl2, 10 μl/min for 30 seconds. In each round of the testing cycle, the antibody to be tested is firstly captured onto the chip. Analyte (human mesothelin) of a certain concentration flowed over the chip surface. Due to the produced SPR signal, the interaction between human mesothelin and the captured antibody can be detected. The detected signal is defined as resonance unit (RU), which was plotted vs time (second) to obtain the corresponding binding curve and dissociation curve. In different test cycles, concentrations of human mesothelin were 10 nM, 20 nM, 40 nM, 80 nM and 160 nM, respectively. The resulting curves were evaluated using Biacore T200 evaluation software and the affinity KD values were calculated. FIG. 5 and FIG. 6 show kinetic curves of the monoclonal antibodies P1A6E and P3F2, in a Biacore Affinity Assay, respectively.

scFv-P1A6E-Fc = target: T3, scFv-P1A6E-Fc (human, UniProt P01857-1 99-330 = IgG part, limits assumed); test: as above
T3 construct: domain: Fc fragment; scFv cloned NheI/BamHI into pCMV-V5-Fc, expressed in HEK-293F, protein A purified; also called P1A6E single chain antibody; antibody-Fc fusion protein scFv-P1A6E-Fc
Experimental: as §1

[4] = target: B6; test: as above
Experimental: as §1

Sequence of human mesothelin on PANC-1-MSLN cells (Q13421 other isoform, or with tags, fused parts or gaps limits assumed): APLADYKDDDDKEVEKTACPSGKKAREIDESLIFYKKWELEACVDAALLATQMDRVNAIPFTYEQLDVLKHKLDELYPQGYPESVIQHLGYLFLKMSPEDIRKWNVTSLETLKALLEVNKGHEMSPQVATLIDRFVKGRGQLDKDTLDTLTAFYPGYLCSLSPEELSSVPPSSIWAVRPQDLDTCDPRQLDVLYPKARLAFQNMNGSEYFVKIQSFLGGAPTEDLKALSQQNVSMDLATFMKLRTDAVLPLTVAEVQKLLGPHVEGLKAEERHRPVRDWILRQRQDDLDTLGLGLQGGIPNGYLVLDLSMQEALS
T1 sequence (P02769 25-607 limits assumed): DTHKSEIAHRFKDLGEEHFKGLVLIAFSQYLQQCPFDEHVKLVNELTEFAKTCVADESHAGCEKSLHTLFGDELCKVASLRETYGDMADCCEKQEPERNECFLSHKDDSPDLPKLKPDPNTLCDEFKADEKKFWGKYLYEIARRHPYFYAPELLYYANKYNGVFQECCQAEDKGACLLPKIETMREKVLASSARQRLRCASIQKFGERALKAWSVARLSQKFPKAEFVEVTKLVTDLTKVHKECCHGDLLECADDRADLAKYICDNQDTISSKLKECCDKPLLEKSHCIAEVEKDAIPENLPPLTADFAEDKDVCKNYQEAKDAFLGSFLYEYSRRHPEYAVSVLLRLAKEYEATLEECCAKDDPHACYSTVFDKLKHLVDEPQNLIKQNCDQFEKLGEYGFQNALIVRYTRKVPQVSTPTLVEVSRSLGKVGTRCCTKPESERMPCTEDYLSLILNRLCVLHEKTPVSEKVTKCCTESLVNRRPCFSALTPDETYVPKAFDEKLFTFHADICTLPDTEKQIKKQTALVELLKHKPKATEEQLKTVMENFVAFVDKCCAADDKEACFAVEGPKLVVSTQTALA

B1: single chain antibody P1A6E (phage-displayed, single phage ELISA) (scFv)
scFv: QVQLEQSGLGLVKPSQTLSLTCAISGDTVSSDSAAWNWIRQSPSRGLEWLGRTYYRSKWFNDYAVSVKGRITINSDTSKNQFSLQLNSVTPEDTAVYYCARSNSYYYYAMDVWGQGTLVTVSSGGGGSGGGGSGGGGSQAVLTQPSSLSASPGASASLTCTLRSGINVGIYRIYWYQQRPGSPPQILLTYKSDSDKYQGSGVPSRFSGSKDASANAGILLISGLQSEDEADYYCMIWHSGGWVFGGGTKVTVLG
notes: the fusion to the phage coat protein is not described
- binding result [1]: no binding

B2: chimeric antigen receptor P3F2-δZ on CTL cells (receptor)
chain: QMQLVQSGAEVKKPGASVKVSCKASGYTFTSYYMHWVRQAPGQGLEWMGIINPSGGSTSYAQKFQGRVTMTRDTSTSTVYMELSSLRSEDTAVYYCASSRSGTTVVNHDAFDIWGKGTTVTVSSGGGGSGGGGSGGGGSDIQLTQSPSSLSASVGDRVTITCRASQVISRALAWYQQTPGKPPKLLIYDASNLQSGVPSRFSGSGSGTDFTLTISRLQPEDFATYYCQQFNSYPLTFGGGTKLEIKRTTTPAPRPPTPAPTIASQPLSLRPEACRPAAGGAVHTRGLDFACDIYIWAPLAGTCGVLLLSLVITRVKFSRSADAPA
notes: Expressed on human CTL cells by lentivirus; also called P3F2-δZ (negative control); P3F2-δZ (mock)
- Positive rate of CTL cells transfection [2]: 71%

B3: chimeric antigen receptor P1A6E-δZ on CTL cells (receptor)
chain: QVQLEQSGLGLVKPSQTLSLTCAISGDTVSSDSAAWNWIRQSPSRGLEWLGRTYYRSKWFNDYAVSVKGRITINSDTSKNQFSLQLNSVTPEDTAVYYCARSNSYYYYAMDVWGQGTLVTVSSGGGGSGGGGSGGGGSQAVLTQPSSLSASPGASASLTCTLRSGINVGIYRIYWYQQRPGSPPQILLTYKSDSDKYQGSGVPSRFSGSKDASANAGILLISGLQSEDEADYYCMIWHSGGWVFGGGTKVTVLGTTTPAPRPPTPAPTIASQPLSLRPEACRPAAGGAVHTRGLDFACDIYIWAPLAGTCGVLLLSLVITRVKFSRSADAPA
notes: Expressed on human CTL cells by lentivirus; also called P1A6E-δZ (negative control); P1A6E-δZ (mock)
- Positive rate of CTL cells transfection [2]: 75%

B4: chimeric antigen receptor P1A6E-BBZ on CTL cells (receptor)
chain: QVQLEQSGLGLVKPSQTLSLTCAISGDTVSSDSAAWNWIRQSPSRGLEWLGRTYYRSKWFNDYAVSVKGRITINSDTSKNQFSLQLNSVTPEDTAVYYCARSNSYYYYAMDVWGQGTLVTVSSGGGGSGGGGSGGGGSQAVLTQPSSLSASPGASASLTCTLRSGINVGIYRIYWYQQRPGSPPQILLTYKSDSDKYQGSGVPSRFSGSKDASANAGILLISGLQSEDEADYYCMIWHSGGWVFGGGTKVTVLGTTTPAPRPPTPAPTIASQPLSLRPEACRPAAGGAVHTRGLDFACDIYIWAPLAGTCGVLLLSLVITLYCKRGRKKLLYIFKQPFMRPVQTTQEEDGCSCRFPEEEEGGCELRVKFSRSADAPAYKQGQNQLYNELNLGRREEYDVLDKRRGRDPEMGGKPRRKNPQEGLYNELQKDKMAEAYSEIGMKGERRRGKGHDGLYQGLSTATKDTYDALHMQALPPR
notes: Expressed on human CTL cells by lentivirus; also called scFv(MSLN)-CD8-CD137-CD3 zeta
- Positive rate of CTL cells transfection [2]: 85%
- CYTOTOXICITY (%), effector target ratio 1:1, LDH release, 18 h [3]: 56.7%
- CYTOTOXICITY (%), effector target ratio 1:3, LDH release, 18 h [3]: 25.3%
- CYTOTOXICITY (%), effector target ratio 3:1, LDH release, 18 h [3]: 86.5%

B5: single chain antibody P3F2 (phage-displayed, single phage ELISA) (scFv)
scFv: QMQLVQSGAEVKKPGASVKVSCKASGYTFTSYYMHWVRQAPGQGLEWMGIINPSGGSTSYAQKFQGRVTMTRDTSTSTVYMELSSLRSEDTAVYYCASSRSGTTVVNHDAFDIWGKGTTVTVSSGGGGSGGGGSGGGGSDIQLTQSPSSLSASVGDRVTITCRASQVISRALAWYQQTPGKPPKLLIYDASNLQSGVPSRFSGSGSGTDFTLTISRLQPEDFATYYCQQFNSYPLTFGGGTKLEIKR
notes: as for B1
- binding result [1]: no binding

Binder: B6
- Kd (scFv-P3F2-Fc): 16.2 nM
- koff (scFv-P3F2-Fc): 0.000935 s⁻¹
- kon (scFv-P3F2-Fc): 57700 M⁻¹ s⁻¹
- Kd (scFv-P1A6E-Fc): 18.9 nM
- koff (scFv-P1A6E-Fc): 0.00156 s⁻¹
- kon (scFv-P1A6E-Fc): 82500 M⁻¹ s⁻¹

B7: P1A6E monoclonal antibody (antibody, V domains shown)
VH: QVQLEQSGLGLVKPSQTLSLTCAISGDTVSSDSAAWNWIRQSPSRGLEWLGRTYYRSKWFNDYAVSVKGRITINSDTSKNQFSLQLNSVTPEDTAVYYCARSNSYYYYAMDVWGQGTLVTVSS
VL: QAVLTQPSSLSASPGASASLTCTLRSGINVGIYRIYWYQQRPGSPPQILLTYKSDSDKYQGSGVPSRFSGSKDASANAGILLISGLQSEDEADYYCMIWHSGGWVFGGGTKVTVLG
notes: Full antibody: VH in plasmid pIH with human IgG1 CH gene, VL in plasmid pIK with human IgG CL gene; also called monoclonal antibody P1A6E
- Kd [4]: 4.04 nM
- koff [4]: 0.00116 s⁻¹
- kon [4]: 288000 M⁻¹ s⁻¹

B8: chimeric antigen receptor P3F2-BBZ on CTL cells (receptor)
chain: QMQLVQSGAEVKKPGASVKVSCKASGYTFTSYYMHWVRQAPGQGLEWMGIINPSGGSTSYAQKFQGRVTMTRDTSTSTVYMELSSLRSEDTAVYYCASSRSGTTVVNHDAFDIWGKGTTVTVSSGGGGSGGGGSGGGGSDIQLTQSPSSLSASVGDRVTITCRASQVISRALAWYQQTPGKPPKLLIYDASNLQSGVPSRFSGSGSGTDFTLTISRLQPEDFATYYCQQFNSYPLTFGGGTKLEIKRTTTPAPRPPTPAPTIASQPLSLRPEACRPAAGGAVHTRGLDFACDIYIWAPLAGTCGVLLLSLVITLYCKRGRKKLLYIFKQPFMRPVQTTQEEDGCSCRFPEEEEGGCELRVKFSRSADAPAYKQGQNQLYNELNLGRREEYDVLDKRRGRDPEMGGKPRRKNPQEGLYNELQKDKMAEAYSEIGMKGERRRGKGHDGLYQGLSTATKDTYDALHMQALPPR
notes: as for B4
- Positive rate of CTL cells transfection [2]: 83%
- CYTOTOXICITY (%), effector target ratio 1:1, LDH release, 18 h [3]: 60.2%
- CYTOTOXICITY (%), effector target ratio 1:3, LDH release, 18 h [3]: 31.9%
- CYTOTOXICITY (%), effector target ratio 3:1, LDH release, 18 h [3]: 89.3%

B9: P3F2 monoclonal antibody (antibody, V domains shown)
VH: QMQLVQSGAEVKKPGASVKVSCKASGYTFTSYYMHWVRQAPGQGLEWMGIINPSGGSTSYAQKFQGRVTMTRDTSTSTVYMELSSLRSEDTAVYYCASSRSGTTVVNHDAFDIWGKGTTVTVSS
VL: DIQLTQSPSSLSASVGDRVTITCRASQVISRALAWYQQTPGKPPKLLIYDASNLQSGVPSRFSGSGSGTDFTLTISRLQPEDFATYYCQQFNSYPLTFGGGTKLEIKR
notes: Full antibody: VH in plasmid pIH with human IgG1 CH gene, VL in plasmid pIK with human IgG CL gene; also called monoclonal antibody P3F2
- Kd [4]: 7.17 nM
- koff [4]: 0.000789 s⁻¹
- kon [4]: 110000 M⁻¹ s⁻¹
